Biological target: Pin1 WW-domain (UniProt Q13526)
Assay: isothermal titration calorimetry
Details: reference: unphosphorylated TFCD peptide; sites S258,S253

In the case of “Tissue Factor (TF) cytoplasmic domain (TFCD) (from UniProt P13726) double phosphorylated TFCD peptide”, the KD is reported as “stronger; reference 1.53 mM”.
